US20230218710A1 (COHBAR, published 2023)
Square brackets hold non-standard residues; d marks the D form. Primed or numbered codes have the meaning given here. Ends that are not written are not given here. PEG12″ = polyethylene glycol with 12 units (PEG-12)

Tests used:
[1] = molecular target: ProLink tagged human APJ (Apelin Receptor) in CHO-K1 AGTRL1 β-Arrestin cells (human, UniProt P35414 1-380); experiment: cell-based or functional assay
[2] = molecular target: T1, Apelin Receptor (APJ) stably overexpressed in CHO-K1 AGTRL1 Gi cells (UniProt P35414 1-380, limits assumed); experiment: cell-based or functional assay
T1 sequence (looked up): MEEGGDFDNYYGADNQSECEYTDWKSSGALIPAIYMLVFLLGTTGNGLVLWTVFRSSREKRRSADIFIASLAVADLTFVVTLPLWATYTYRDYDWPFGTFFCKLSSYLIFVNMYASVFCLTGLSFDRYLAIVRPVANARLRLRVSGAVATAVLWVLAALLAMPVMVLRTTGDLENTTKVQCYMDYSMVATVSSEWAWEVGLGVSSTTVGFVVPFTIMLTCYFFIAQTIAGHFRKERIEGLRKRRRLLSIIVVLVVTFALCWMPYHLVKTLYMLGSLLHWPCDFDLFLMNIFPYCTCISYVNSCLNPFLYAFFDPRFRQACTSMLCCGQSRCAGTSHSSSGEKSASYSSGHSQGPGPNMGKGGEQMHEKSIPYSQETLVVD

B1: SEQ ID NO: 17 (peptide)
peptide: RRMMGMVFQSLSG[dA]
- β-Arrestin recruitment, Percent of Apelin-13 Control Activity (10 µM peptide) [1]: 10%
- inhibition of forskolin-induced cAMP, Percent of Pyr-Apelin-13 Control Activity (10 µM peptide) [2]: 26%

B2: SEQ ID NO: 52 (peptide)
peptide: RMMGMVFQS
- β-Arrestin recruitment, Percent of Apelin-13 Control Activity (10 µM peptide) [1]: 0%
- inhibition of forskolin-induced cAMP, Percent of Pyr-Apelin-13 Control Activity (10 µM peptide) [2]: 15%

B3: SEQ ID NO: 53 (peptide)
peptide: RMMGMVFQSL
- β-Arrestin recruitment, Percent of Apelin-13 Control Activity (10 µM peptide) [1]: 1%
- inhibition of forskolin-induced cAMP, Percent of Pyr-Apelin-13 Control Activity (10 µM peptide) [2]: 6%

B4: SEQ ID NO: 54 (peptide)
peptide: RMMGMVFQSLCG[dA]
- β-Arrestin recruitment, Percent of Apelin-13 Control Activity (10 µM peptide) [1]: 1%
- inhibition of forskolin-induced cAMP, Percent of Pyr-Apelin-13 Control Activity (10 µM peptide) [2]: 20%

B5: SEQ ID NO: 55 (peptide)
peptide: RRMMGM
- β-Arrestin recruitment, Percent of Apelin-13 Control Activity (10 µM peptide) [1]: 1%
- inhibition of forskolin-induced cAMP, Percent of Pyr-Apelin-13 Control Activity (10 µM peptide) [2]: -7%

B6: SEQ ID NO: 56 (peptide)
peptide: RRMMGMV
- β-Arrestin recruitment, Percent of Apelin-13 Control Activity (10 µM peptide) [1]: 0%
- inhibition of forskolin-induced cAMP, Percent of Pyr-Apelin-13 Control Activity (10 µM peptide) [2]: -2%

B7: SEQ ID NO: 57 (peptide)
peptide: RRMMGMVF
- β-Arrestin recruitment, Percent of Apelin-13 Control Activity (10 µM peptide) [1]: 0%
- inhibition of forskolin-induced cAMP, Percent of Pyr-Apelin-13 Control Activity (10 µM peptide) [2]: -1%

B8: SEQ ID NO: 58 (peptide)
peptide: RRMMGMVFQ
- β-Arrestin recruitment, Percent of Apelin-13 Control Activity (10 µM peptide) [1]: 0%
- inhibition of forskolin-induced cAMP, Percent of Pyr-Apelin-13 Control Activity (10 µM peptide) [2]: 5%

B9: SEQ ID NO: 59 (peptide)
peptide: RRMMGMVFQS
- β-Arrestin recruitment, Percent of Apelin-13 Control Activity (10 µM peptide) [1]: 0%
- inhibition of forskolin-induced cAMP, Percent of Pyr-Apelin-13 Control Activity (10 µM peptide) [2]: -2%

B10: SEQ ID NO: 60 (peptide)
peptide: RRMMGMVFQSL
- β-Arrestin recruitment, Percent of Apelin-13 Control Activity (10 µM peptide) [1]: 0%
- inhibition of forskolin-induced cAMP, Percent of Pyr-Apelin-13 Control Activity (10 µM peptide) [2]: 16%

B11: SEQ ID NO: 61 (peptide)
peptide: Ac-RRMMGMVFQSLCG[dA]
- β-Arrestin recruitment, Percent of Apelin-13 Control Activity (10 µM peptide) [1]: 5%
- inhibition of forskolin-induced cAMP, Percent of Pyr-Apelin-13 Control Activity (10 µM peptide) [2]: 1%

B12: SEQ ID NO: 18 (peptide)
peptide: RRXXGXVFQCLCGA
modifications: (Nle) = norleucine at positions 3, 4 and 6; C-terminal (dA) = D-alanine
- β-Arrestin recruitment, Percent of Apelin-13 Control Activity (10 µM peptide) [1]: 1%
- inhibition of forskolin-induced cAMP, Percent of Pyr-Apelin-13 Control Activity (10 µM peptide) [2]: 30%

B13: SEQ ID NO: 62 (peptide)
peptide: RRMMGMVFQSLCG[dA]-NH2
- β-Arrestin recruitment, Percent of Apelin-13 Control Activity (10 µM peptide) [1]: 2%
- inhibition of forskolin-induced cAMP, Percent of Pyr-Apelin-13 Control Activity (10 µM peptide) [2]: 27%

B14: SEQ ID NO: 63 (peptide)
peptide: Ac-RRMMGMVFQSLCG[dA]-NH2
- β-Arrestin recruitment, Percent of Apelin-13 Control Activity (10 µM peptide) [1]: 9%
- inhibition of forskolin-induced cAMP, Percent of Pyr-Apelin-13 Control Activity (10 µM peptide) [2]: 21%

B15: SEQ ID NO: 19 (peptide)
peptide: RRMVFQCLCG[dA]
modifications: cysteine pairing not given here
- β-Arrestin recruitment, Percent of Apelin-13 Control Activity (10 µM peptide) [1]: 1%
- inhibition of forskolin-induced cAMP, Percent of Pyr-Apelin-13 Control Activity (10 µM peptide) [2]: 27%

B16: SEQ ID NO: 20 (peptide)
peptide: KRRMMGMVFQCLCGA
modifications: (PEG12) at the N-terminal K; C-terminal (dA) = D-alanine
- β-Arrestin recruitment, Percent of Apelin-13 Control Activity (10 µM peptide) [1]: 1%
- inhibition of forskolin-induced cAMP, Percent of Pyr-Apelin-13 Control Activity (10 µM peptide) [2]: 37%

B17: SEQ ID NO: 21 (peptide)
peptide: RRMMGMVFQCLCG[dA]K(PEG12″)
modifications: cysteine pairing not given here
- β-Arrestin recruitment, Percent of Apelin-13 Control Activity (10 µM peptide) [1]: 1%
- inhibition of forskolin-induced cAMP, Percent of Pyr-Apelin-13 Control Activity (10 µM peptide) [2]: 34%

B18: SEQ ID NO: 22 (peptide)
peptide: RRMVYQCLCG[dA]
modifications: cysteine pairing not given here
- β-Arrestin recruitment, Percent of Apelin-13 Control Activity (10 µM peptide) [1]: 0%
- inhibition of forskolin-induced cAMP, Percent of Pyr-Apelin-13 Control Activity (10 µM peptide) [2]: 62%

B19: SEQ ID NO: 23 (peptide)
peptide: RRMVFQCLEG[dA]
- β-Arrestin recruitment, Percent of Apelin-13 Control Activity (10 µM peptide) [1]: 0%
- inhibition of forskolin-induced cAMP, Percent of Pyr-Apelin-13 Control Activity (10 µM peptide) [2]: -4%

B20: SEQ ID NO: 24 (peptide)
peptide: RRMVYQCLEG[dA]
- β-Arrestin recruitment, Percent of Apelin-13 Control Activity (10 µM peptide) [1]: -1%
- inhibition of forskolin-induced cAMP, Percent of Pyr-Apelin-13 Control Activity (10 µM peptide) [2]: 16%

B21: SEQ ID NO: 25 (peptide)
peptide: RREMVYQCLCG[dA]
modifications: cysteine pairing not given here
- β-Arrestin recruitment, Percent of Apelin-13 Control Activity (10 µM peptide) [1]: -1%
- inhibition of forskolin-induced cAMP, Percent of Pyr-Apelin-13 Control Activity (10 µM peptide) [2]: 3%

B22: SEQ ID NO: 26 (peptide)
peptide: RREMVYQCLEG[dA]
- β-Arrestin recruitment, Percent of Apelin-13 Control Activity (10 µM peptide) [1]: 0%
- inhibition of forskolin-induced cAMP, Percent of Pyr-Apelin-13 Control Activity (10 µM peptide) [2]: 29%

B23: SEQ ID NO: 8 (peptide)
peptide: RRMMGMVFQCLCG[dA]
modifications: cysteine pairing not given here
- β-Arrestin recruitment, Percent of Apelin-13 Control Activity (10 µM peptide) [1]: 17%
- inhibition of forskolin-induced cAMP, Percent of Pyr-Apelin-13 Control Activity (10 µM peptide) [2]: 64%

B24: SEQ ID NO: 27 (peptide)
peptide: RRMAYQCLEG[dA]
- β-Arrestin recruitment, Percent of Apelin-13 Control Activity (10 µM peptide) [1]: -1%
- inhibition of forskolin-induced cAMP, Percent of Pyr-Apelin-13 Control Activity (10 µM peptide) [2]: 9%

B25: SEQ ID NO: 28 (peptide)
peptide: RRMGYQCLEG[dA]
- β-Arrestin recruitment, Percent of Apelin-13 Control Activity (10 µM peptide) [1]: -1%
- inhibition of forskolin-induced cAMP, Percent of Pyr-Apelin-13 Control Activity (10 µM peptide) [2]: 3%

B26: SEQ ID NO: 29 (peptide)
peptide: RRMMGMVYQCLEG[dA]
- β-Arrestin recruitment, Percent of Apelin-13 Control Activity (10 µM peptide) [1]: 0%
- inhibition of forskolin-induced cAMP, Percent of Pyr-Apelin-13 Control Activity (10 µM peptide) [2]: 21%

B27: SEQ ID NO: 30 (peptide)
peptide: RRMMGMVAQCLEG[dA]
- β-Arrestin recruitment, Percent of Apelin-13 Control Activity (10 µM peptide) [1]: -1%
- inhibition of forskolin-induced cAMP, Percent of Pyr-Apelin-13 Control Activity (10 µM peptide) [2]: 31%

B28: SEQ ID NO: 31 (peptide)
peptide: RRMEVYQCLCG[dA]
modifications: cysteine pairing not given here; also: places D-Ala at position 13
- β-Arrestin recruitment, Percent of Apelin-13 Control Activity (10 µM peptide) [1]: 0%
- inhibition of forskolin-induced cAMP, Percent of Pyr-Apelin-13 Control Activity (10 µM peptide) [2]: 2%

B29: SEQ ID NO: 32 (peptide)
peptide: RRMEVYQCLEG[dA]
- β-Arrestin recruitment, Percent of Apelin-13 Control Activity (10 µM peptide) [1]: 0%
- inhibition of forskolin-induced cAMP, Percent of Pyr-Apelin-13 Control Activity (10 µM peptide) [2]: 4%

B30: SEQ ID NO: 33 (peptide)
peptide: RRLLGLVFQSLCG[dA]
- β-Arrestin recruitment, Percent of Apelin-13 Control Activity (10 µM peptide) [1]: 9%
- inhibition of forskolin-induced cAMP, Percent of Pyr-Apelin-13 Control Activity (10 µM peptide) [2]: 27%

B31: SEQ ID NO: 16 (peptide)
peptide: RRMMGMVFQCLSG[dA]
- β-Arrestin recruitment, Percent of Apelin-13 Control Activity (10 µM peptide) [1]: 0%
